Results taken from patent publication US12710427B2, “Anti-human neurotensin receptor 1 antibody and use thereof” (National Health Research Institutes, priority 2020, dated 2026).
Residue numbers refer to the chain shown, from its start. Names may count otherwise. “Also recorded” adds a separate entry of the source.

B1: h7C3-4: h7C3-3 variant with S9T and D82E in VH and K79T in VL; VH SEQ ID NO: 13, VL SEQ ID NO: 14 (antibody, V domains shown)
VH: QVQLQQPGTVLVRPGASVKLSCKASGYAFTSSWIHWAKQRPGQGLEWIGQIRPNSGNTYYNEKFKVKATLTVDTSSSTAYVELSSLTSEDSAVYYCARYHYGFDYWGQGTLVTVSS
VL: DVLMTQTPLSLPVSLGDQASISCRSSQSIVHSNGNTYLEWYLQKPGQSPKLLIYKVSNRFSGVPDRFSGSGSGTDFTLTISRVEAEDLGVYYCFQGAHLPWTFGGGTKLEIKR
modifications: VH SEQUENCE; VL SEQUENCE
B2: h7C3-3-MMAE: h7C3-3 conjugated with MMAE via cleavable valine-citrulline linker, average 3.8-4 MMAE per antibody (conjugate)
VH: B1 VH with T9S, E82D
VL: B1 VL with T79K
modifications: non-natural residues
notes: h7C3-3 conjugated with MMAE via cleavable valine-citrulline linker, average 3.8-4 MMAE per antibody
B3: h7C3-4-MMAE: h7C3-4 conjugated with MMAE via cleavable valine-citrulline linker, average 3.8-4 MMAE per antibody (conjugate)
VH: B1 VH
VL: B1 VL

Assays:
[1] = test system: PC-3; test: In vitro cell cytotoxicity assay (CellTiter-Glo); format: cell-based
Description: (§1) The number of living cells were determined using the CellTiter-Glo® Luminescent Cell Viability Assay (Promega G7571). Cells were plated in 96-well opaque Costar plates (Cat number 136101). In brief, 500-2500 cells in 90 μL media were added to each well in quadruplicate and allowed to adhere for 16 hours. Anti-NTSR1 (dose range: 0-500 nM), anti-NTSR1-MMAE (dose range: 0-500 nM) or Paclitaxel (dose range: 0-100 nM) were added in […] 72-120 hours, medium was removed, and 200 μL of CellTiter-Glo® viability reagent contain culture medium (1:1) was added to each well and placed on an orbital shaker in the dark for 2 minutes. The plate was allowed to sit at RT for 10 minutes before being read on a GloMax® Explorer Multimode Microplate Reader (GM3500).

[2] = test system: A549; test: In vitro cell cytotoxicity assay (CellTiter-Glo); format: cell-based
Description: as §1

[3] = Pharmacokinetics in mice, serum antibody by ELISA; format: in vivo
Description: The pharmacokinetics of h7C3-3 and h7C3-4 were evaluated in B6 mice. B6 mice (n=6) were administered 10 mg/kg of test material (based on the antibody component) by tail vein injection. Blood samples were collected from each mouse via the saphenous vein at hour 1, 2, and 6, and at day 1, 2, 3, 4, 7, 9, 11, 14, 16, 18, 21, 23, 25, 35 and 42 post-injection, and serum samples were collected. Plasma concentrations of h7C3-3 and h7C3-4 were measured by IgG (Total) Human ELISA Kit (Invitrogen, BMS2091).

[4] = Isoelectric point (pI); format: physicochemical
[5] = test system: NTSR1-expressing A549 cancer cells; test: Internalization of h7C3-3 or h7C3-3-ADC in A549 cells (flow cytometry); format: cell-based; conditions: A549, 1 μg/ml, 37° C. for 90 minutes
Description: A total of 1×10^6 cells were reacted with the indicated antibody or ADC in 100 μL of FACS buffer for 60 minutes at 4° C. and washed to remove excess antibody or ADC. Cells were then transferred to 4° C. or 37° C. for 90 minutes. To determine the relative number of h7C3-3 or h7C3-3-ADC on the cell surface, cells were stained with saturating amounts of FITC (BD Pharmingen™) conjugated mouse anti-human IgG antibodies and incubated for additional 60 minutes on ice. Cells were washed again and followed by an additional incubation with 1 ml PBS containing 0.5 mg/mL propidium iodide at 4° C. for 10 minutes. Data were collected on 10,000 living cells by FACS (Bio-Red S3e cell sorter). Fluorescence intensity from channel FL-1 was calculated with Flow Jo flow cytometry analysis software. Preparation of anti-NTSR1 antibody-drug conjugates (ADCs)

[6] = biological target: T1, NTSR1 on A549 cells (Homo sapiens, UniProt P30989); test: Flow cytometry (FACS) binding of anti-NTSR1 antibodies on A549 cells; conditions: A549 cells, one hour incubation at 4° C.
T1 construct: endogenous in cells; host or cells: A549 (NSCLC)
T1 sequence (P30989 whole entry): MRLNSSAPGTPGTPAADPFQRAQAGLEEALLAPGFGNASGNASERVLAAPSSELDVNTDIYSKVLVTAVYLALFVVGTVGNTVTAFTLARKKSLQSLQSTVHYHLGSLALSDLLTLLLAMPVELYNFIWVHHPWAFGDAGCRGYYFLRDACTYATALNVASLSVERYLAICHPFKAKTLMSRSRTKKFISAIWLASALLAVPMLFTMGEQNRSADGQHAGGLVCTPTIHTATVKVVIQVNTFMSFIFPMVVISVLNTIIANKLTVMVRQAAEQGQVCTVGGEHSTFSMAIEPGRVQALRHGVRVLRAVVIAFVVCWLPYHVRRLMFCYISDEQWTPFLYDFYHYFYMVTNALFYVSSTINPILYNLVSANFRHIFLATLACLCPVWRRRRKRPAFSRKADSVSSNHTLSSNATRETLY
Description: A total of 1×10^6 cells were reacted with an anti-NTSR1 antibody in 100 μL of FACS buffer (PBS containing 0.5% BSA) for 60 minutes at 4° C. and washed two times to remove excess antibody. Secondary FITC (BD Pharmingen™) conjugated mouse anti-human IgG antibodies were incubated for an additional 60 minutes on ice. Cells were washed again and followed by an additional incubation with 1 ml PBS containing 0.5 mg/mL propidium iodide at 4° C. for 10 minutes. Data were collected on 10,000 living cells by FACS (Bio-Red S3e cell sorter). Fluorescence intensity from channel FL-1 was calculated with Flow Jo flow […] cytometry analysis software.

[7] = test system: HA22T; test: In vitro cell cytotoxicity assay (CellTiter-Glo); format: cell-based
Description: as §1

[8] = test system: HA22T-Luc; test: In vitro cell cytotoxicity assay (CellTiter-Glo); format: cell-based
Description: as §1

[9] = test system: H1299; test: In vitro cell cytotoxicity assay (CellTiter-Glo); format: cell-based
Description: as §1

[10] = test system: Mahlavu; test: In vitro cell cytotoxicity assay (CellTiter-Glo); format: cell-based
Description: as §1

[11] = test system: H1299 lung tumor xenograft; test: H1299 lung tumor xenograft model; format: in vivo, nude mice; conditions: for body weight: 10 mg/kg, H1299 xenograft mice
From the text: (§2) Immuodeficient male NU/NU nude mice (for H1299 and PC-3 xenograft study) and male Fox Chase SCID® mice (for HA22T-Luc xenograft study) of 7-week-old purchased from BioLASCO were housed in sterilized cages equipped with an air filter and sterile bedding materials at the Laboratory Animal Center of the National Health Research Institutes (NHRI), which is an AAALAC International accredited facility. All mice were fed with sterilized water and chow ad libitum under 12-hour light/12-hour dark cycle throughout the study. On the day of tumor cell inoculation, the number of viable cells was counted by using a hemocytometer with trypan blue staining under a light microscope. Cells were suspended in phenol red-free medium [RPMI1640 (H1299) or DMEM (HA22T-Luc)] or PBS (PC-3) and Matrigel™ (356237, Matrigel® Matrix, Corning, MA, United States) in 1:1 ratio. H1299 (1×10^6 cells), HA22T-Luc (5×10^6 cells) and PC-3 (1×10^6 cells) were implanted subcutaneously into the left flank of either nude or SCID mice using a 1 mL syringe (needle 24G×1 inch). Tumor dimensions were measured with a digital caliper, and the tumor volume in mm^3 was calculated by the formula: Volume=(length×width^∧2)/2. Tumor-bearing mice were grouped (n=5-8 per group) and administered when the average tumor volume was approximately at 200 mm^3. In the 3 individual xenograft studies, human IgG (HU-GF-ED, Lot#120916DG, Molecular Innovations, MI, USA), h7C3-4, h7C3-3-MMAE and h7C3-4-MMAE were diluted in 1× Dulbecco's Phosphate Buffered Saline (02-023-5A, Biological Industries, CT, USA) freshly before dosing at concentration of 2.5 mg/ml. Cisplatin (KEMOPLAT, 1 mg/mL, 87200009AA, Fresenius Kabi, Bad Homburg, Germany) was purchased. In the H1299 xenograft study, tumor-bearing mice were divided into 5 groups (6 mice per group): Human IgG −10 mg/Kg group (negative control), Cisplatin—7 mg/Kg group (positive control), h7C3-3-MMAE —10 mg/Kg group, h7C3-4 −10 mg/Kg group and h7C3-4-MMAE −10 mg/Kg group. The mice were intravenously injected with 4 mL/Kg of dose volume by tail vein twice per week for 3 weeks, except for the Cisplatin group, which was once per week for 3 weeks. In the HA22T-Luc xenograft study, tumor-bearing mice were divided into 3 groups (8 mice per group): Human IgG −10 mg/Kg group (negative control), h7C3-3-MMAE −10 mg/Kg group and h7C3-4-MMAE (ADC) −10 mg/Kg group. The mice were intravenously injected with 4 mL/Kg of dose volume by tail vein twice per week for 2 weeks. In the PC-3 xenograft study, tumor-bearing mice were divided into 2 groups: no treatment group (5 mice) and h7C3-4-MMAE (ADC) −10 mg/Kg (8 mice). The mice in h7C3-4-MMAE −10 mg/Kg group were intravenously injected with 4 mL/Kg of dose volume by tail vein twice per week for 3 weeks. Each treatment was based on the body weight. Body weight and tumor size were measured twice weekly.
Nude mice were subcutaneously inoculated with NTSR1-expressing cells, H1299 (1×10^6 cells per mouse). When the tumors reached a volume of 200 mm^3, the tumor-bearing mice were grouped (n=6) and administered intravenously with human IgG (negative control), h7C3-3-MMAE, h7C3-4 and h7C3-4-MMAE, respectively, at 10 mg/Kg twice weekly for six doses. The Cisplatin (positive control) was administered intravenously at 7 mg/Kg weekly for three doses.

[12] = test system: HA22T-Luc liver tumor xenografts; test: HA22T-Luc liver tumor xenograft model; format: in vivo, SCID mice; conditions: for tumor volume on day 15 / tumor volume until 36 days: 10 mg/Kg i.v. twice weekly for four doses; for body weight: 10 mg/kg, HA22T-Luc xenograft mice
From the text: as §2
To compare the anti-tumor efficacies of h7C3-3-MMAE and h7C3-4 MMAE, an experiment was performed with 5×10^6 HA22T-luc liver cancer cells inoculated subcutaneously to SCID mice. Tumor-bearing mice were divided into 3 groups (n=8). When the tumors reached a volume of 200 mm^3, 10 mg/Kg of human IgG, h7C3-3-MMAE and h7C3-4 MMAE were administered intravenously, respectively, twice weekly for four doses.

[13] = test system: PC3 prostate tumor xenograft; test: PC3 prostate tumor xenograft model; format: in vivo, nude mice
From the text: as §2, with “The mice were intravenously injected with 4 mL/Kg of dose volume by tail vein twice per week for 3 weeks, except for the Cisplatin group, which was once per week for 3 weeks. In the HA22T-Luc xenograft study, tumor-bearing mice were divided into 3 groups (8 mice per group): Human IgG −10 mg/Kg group (negative control), h7C3-3-MMAE −10 mg/Kg group and h7C3-4-MMAE (ADC) −10 mg/Kg group. The mice were intravenously injected with 4 mL/Kg of dose volume by tail vein twice per week for 2 weeks. In the PC-3 xenograft study, tumor-bearing mice were divided into 2 groups: no treatment group (5 mice) and h7C3-4-MMAE (ADC) −10 mg/Kg (8 mice). The mice in h7C3-4-MMAE −10 mg/Kg group were intravenously injected with 4 mL/Kg of dose volume by tail vein twice per week for 3 weeks. Each treatment was based on the body weight.” left out, “weekly. […]” for “weekly.”

[14] = 10 mg/kg i.v. twice weekly for six doses

Row | Molecule | IC50 [1] [nM] | IC50 [2] [nM] | pharmacokinetics (overall) ([3]; 10 mg/kg) | clearance compared with h7C3-3 ([3]; single intravenous administration 10 mg/kg) | isoelectric points (pI) compared to h7C3-3 [4] | internalization efficiency [5] | binding on cell surface [6] | IC50 [7] [nM] | IC50 [8] [nM] | IC50 [9] [nM] | IC50 [10] [nM] | tumor growth (tumor volume) until/on day 35 [11, 14] | body weight [11] | tumor volume on day 15 [12] | tumor volume until 36 days [12] | body weight [12] | antitumor efficacy [13, 14] | tumor volume until day 60 [13, 14] | body weight / general physiological conditions ([13]; 10 mg/kg, PC3 xenograft mice) | tumor growth (tumor volume) on day 18 ([11]; 10 mg/kg i.v. twice weekly for six doses, vs human IgG 10 mg/kg and Cisplatin 7 mg/kg)
1 | B1 | > 500 | > 500 | better pharmacokinetics | significantly improved clearance | lower |  |  |  |  |  |  |  |  |  |  |  |  |  |  | 
2 | B2 | 21.9 ± 2.04 | 40.9 ± 1.63 |  |  |  | internalized efficiently | have binding efficiency on cell surface | 36.9 ± 3.04 | 39.4 ± 2.87 | 95.6 ± 2.02 | 236 ± 6.9 | partial inhibition of the tumor growth | did not show body weight loss | tumor regression | prolonged regression of tumor | did not show body weight loss |  |  |  | 
3 | B3 | 55.4 ± 5.17 | 33.5 ± 3.32 |  |  |  |  |  |  |  |  |  | Prolonged regression of tumor | did not show body weight loss | tumor regression | prolonged regression of tumor | did not show body weight loss | highly efficacious | prolonged regression of tumor | did not induce any abnormalities; also recorded: did not cause body weight loss | inhibited the tumor growth more potently
